Data published in article PMC10397247.

Columns and labels:
APC3645-AA = target: T1, APC3645-AA; experiment: two-hybrid library CCmax;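 further: natural log of median RNA to DNA barcode read ratio; higher means stronger binding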
T1 chain: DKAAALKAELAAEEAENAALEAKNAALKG

APC4011-AA = target: T2, APC4011-AA; experiment: two-hybrid library CCmax; details: mean of both orientations;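 further: natural log of median RNA to DNA barcode read ratio; higher means stronger binding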
T2 chain: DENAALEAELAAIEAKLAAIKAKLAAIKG

APC4264-AA = target: T3, APC4264-AA; experiment: two-hybrid library CCmax; details: mean of both orientations;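 further: natural log of median RNA to DNA barcode read ratio; higher means stronger binding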
T3 chain: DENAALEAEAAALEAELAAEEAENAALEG

APC4436-AA = target: T4, APC4436-AA; experiment: two-hybrid library CCmax; details: mean of both orientations;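 further: natural log of median RNA to DNA barcode read ratio; higher means stronger binding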
T4 chain: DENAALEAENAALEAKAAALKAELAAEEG

APC5383-AA = target: T5, APC5383-AA; experiment: two-hybrid library CCmax; details: mean of both orientations
T5 chain: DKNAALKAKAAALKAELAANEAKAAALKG

APC6108-AA = target: T6, APC6108-AA; experiment: two-hybrid library CCmax; details: mean of both orientations
T6 chain: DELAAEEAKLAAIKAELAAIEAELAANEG

APC7099-AA = target: T7, APC7099-AA; experiment: two-hybrid library CCmax; details: mean of both orientations
T7 chain: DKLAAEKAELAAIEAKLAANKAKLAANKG

APC8191-AA = target: T8, APC8191-AA; experiment: two-hybrid library CCmax; details: mean of both orientations
T8 chain: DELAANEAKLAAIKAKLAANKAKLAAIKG

APC8910-AA = target: T9, APC8910-AA; experiment: two-hybrid library CCmax; details: mean of both orientations
T9 chain: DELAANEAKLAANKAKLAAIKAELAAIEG

APC9096-AA = target: T10, APC9096-AA; experiment: two-hybrid library CCmax; details: mean of both orientations
T10 chain: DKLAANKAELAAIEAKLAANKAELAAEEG

APC9319-AA = target: T11, APC9319-AA; experiment: two-hybrid library CCmax; details: mean of both orientations
T11 chain: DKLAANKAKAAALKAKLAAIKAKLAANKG

4H3297-bA = target: T12, 4H3297-bA; experiment: two-hybrid library CCNG1
T12 chain: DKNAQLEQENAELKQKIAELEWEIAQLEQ

4H3364-bA = target: T13, 4H3364-bA; experiment: two-hybrid library CCNG1
T13 chain: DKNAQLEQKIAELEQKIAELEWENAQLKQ

4H3381-bA = target: T14, 4H3381-bA; experiment: two-hybrid library CCNG1
T14 chain: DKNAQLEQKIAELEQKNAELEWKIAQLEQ

4H349-bA = target: T15, 4H349-bA; experiment: two-hybrid library CCNG1
T15 chain: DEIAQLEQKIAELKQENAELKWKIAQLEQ

4H56-bA = target: T16, 4H56-bA; experiment: two-hybrid library CCNG1
T16 chain: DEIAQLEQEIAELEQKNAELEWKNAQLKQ

4H730-bA = target: T17, 4H730-bA; experiment: two-hybrid library CCNG1
T17 chain: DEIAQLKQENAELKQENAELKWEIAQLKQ

4H796-bA = target: T18, 4H796-bA; experiment: two-hybrid library CCNG1
T18 chain: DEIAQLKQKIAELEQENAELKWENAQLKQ

4H932-bA = target: T19, 4H932-bA; experiment: two-hybrid library CCNG1
T19 chain: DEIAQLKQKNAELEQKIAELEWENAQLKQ

4H949-bA = target: T20, 4H949-bA; experiment: two-hybrid library CCNG1
T20 chain: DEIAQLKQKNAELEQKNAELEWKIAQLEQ

4H319-bH = target: T21, 4H319-bH; experiment: two-hybrid library CCNG1
T21 chain: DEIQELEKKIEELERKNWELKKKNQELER

4H3277-bH = target: T22, 4H3277-bH; experiment: two-hybrid library CCNG1
T22 chain: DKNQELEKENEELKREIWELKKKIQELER

4H348-bH = target: T23, 4H348-bH; experiment: two-hybrid library CCNG1
T23 chain: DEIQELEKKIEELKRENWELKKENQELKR

4H40-bH = target: T24, 4H40-bH; experiment: two-hybrid library CCNG1
T24 chain: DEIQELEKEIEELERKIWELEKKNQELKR

4H477-bH = target: T25, 4H477-bH; experiment: two-hybrid library CCNG1
T25 chain: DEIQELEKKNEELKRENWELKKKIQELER

4H492-bH = target: T26, 4H492-bH; experiment: two-hybrid library CCNG1
T26 chain: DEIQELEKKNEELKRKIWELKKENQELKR

4H741-bH = target: T27, 4H741-bH; experiment: two-hybrid library CCNG1
T27 chain: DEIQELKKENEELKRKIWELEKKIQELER

4H2732-AA = target: T28, 4H2732-AA; experiment: two-hybrid library CCmax
T28 chain: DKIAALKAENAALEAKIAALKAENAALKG

4H2774-AA = target: T29, 4H2774-AA; experiment: two-hybrid library CCmax; details: mean of both orientations
T29 chain: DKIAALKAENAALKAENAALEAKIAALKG

4H2931-AA = target: T30, 4H2931-AA; experiment: two-hybrid library CCmax; details: mean of both orientations
T30 chain: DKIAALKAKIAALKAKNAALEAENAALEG

4H3001-AA = target: T31, 4H3001-AA; experiment: two-hybrid library CCmax; details: mean of both orientations
T31 chain: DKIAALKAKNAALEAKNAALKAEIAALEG

4H3015-AA = target: T32, 4H3015-AA; experiment: two-hybrid library CCmax; details: mean of both orientations
T32 chain: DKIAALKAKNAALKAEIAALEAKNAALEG

4H3073-AA = target: T33, 4H3073-AA; experiment: two-hybrid library CCmax; details: mean of both orientations
T33 chain: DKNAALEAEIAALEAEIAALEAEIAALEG

4H3438-AA = target: T34, 4H3438-AA; experiment: two-hybrid library CCmax; details: mean of both orientations
T34 chain: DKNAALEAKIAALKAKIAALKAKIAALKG

4H347-AA = target: T35, 4H347-AA; experiment: two-hybrid library CCmax; details: mean of both orientations
T35 chain: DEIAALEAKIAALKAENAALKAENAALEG

4H406-AA = target: T36, 4H406-AA; experiment: two-hybrid library CCmax; details: mean of both orientations
T36 chain: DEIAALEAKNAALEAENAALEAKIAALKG

4H452-AA = target: T37, 4H452-AA; experiment: two-hybrid library CCmax; details: mean of both orientations
T37 chain: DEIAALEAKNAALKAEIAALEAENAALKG

4H56-AA = target: T38, 4H56-AA; experiment: two-hybrid library CCmax; details: mean of both orientations
T38 chain: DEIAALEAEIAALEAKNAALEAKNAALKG

4H_APH = target: T39, 4H_APH; experiment: two-hybrid library CCmax; details: mean of both orientations
T39 chain: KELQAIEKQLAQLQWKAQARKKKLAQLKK

4H_BCR = target: T40, 4H_BCR; experiment: two-hybrid library CCmax; details: mean of both orientations
T40 chain: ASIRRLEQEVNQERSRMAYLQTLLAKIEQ

4H_GCN4 = experiment: two-hybrid library CCmax; details: mean of both orientations
GCN2_T = experiment: two-hybrid library CCmax

4H_GCN4, sequence (chain, as listed by the source): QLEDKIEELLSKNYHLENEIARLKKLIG

With DKAAALKAELAAEEAENAALEAKNAALKG [APC3645-AA] as the binder, how does the interaction score (APC3645-AA) read?
The interaction score was -1.12.

And the interaction score (APC4011-AA)?
Its interaction score is -1.34.

What about the interaction score (APC4264-AA) of the same binder?
Its interaction score is -1.56.

What about the interaction score (APC4436-AA) of the same binder?
The interaction score was -2.1.

And the interaction score (APC5383-AA)?
The interaction score was -1.51.

What about the interaction score (APC6108-AA) of the same binder?
The interaction score was -1.68.

What about the interaction score (APC7099-AA) of the same binder?
The interaction score was -1.63.

And the interaction score (APC8191-AA)?
The interaction score was -1.7.

What about the interaction score (APC8910-AA) of the same binder?
Its interaction score is -1.79.

And the interaction score (APC9096-AA)?
The interaction score was -1.71.

And the interaction score (APC9319-AA)?
The interaction score was -1.55.

Which interaction score (4H3297-bA) does the source give for DKNAQLEQENAELKQKIAELEWEIAQLEQ [4H3297-bA] here?
Its interaction score is 1.19.

What about the interaction score (4H3364-bA) of the same binder?
The interaction score was -0.887.

And the interaction score (4H3381-bA)?
Its interaction score is -0.995.

What about the interaction score (4H349-bA) of the same binder?
Its interaction score is -1.15.

And the interaction score (4H56-bA)?
Its interaction score is -0.874.

And the interaction score (4H730-bA)?
The interaction score was -0.992.

What about the interaction score (4H796-bA) of the same binder?
The interaction score was -1.18.

What about the interaction score (4H932-bA) of the same binder?
Its interaction score is -0.454.

What about the interaction score (4H949-bA) of the same binder?
The interaction score was -0.949.

How did the interaction score (4H319-bH) turn out when DEIQELEKKIEELERKNWELKKKNQELER [4H319-bH] was run?
Its interaction score is 1.04.

And the interaction score (4H3277-bH)?
Its interaction score is -0.168.

What about the interaction score (4H348-bH) of the same binder?
Its interaction score is 0.143.

And the interaction score (4H40-bH)?
The interaction score was -2.01.

And the interaction score (4H477-bH)?
The interaction score was -0.71.

And the interaction score (4H492-bH)?
The interaction score was -0.172.

And the interaction score (4H741-bH)?
The interaction score was 0.321.

Which interaction score (4H2732-AA) does the source give for DKIAALKAENAALEAKIAALKAENAALKG [4H2732-AA] here?
The interaction score was 0.324.

What about the interaction score (4H2774-AA) of the same binder?
Its interaction score is -1.29.

And the interaction score (4H2931-AA)?
Its interaction score is -1.81.

What about the interaction score (4H3001-AA) of the same binder?
Its interaction score is -1.46.

And the interaction score (4H3015-AA)?
The interaction score was 1.14.

And the interaction score (4H3073-AA)?
The interaction score was 0.0758.

What about the interaction score (4H3438-AA) of the same binder?
The interaction score was -1.2.

What about the interaction score (4H347-AA) of the same binder?
Its interaction score is -1.49.

What about the interaction score (4H406-AA) of the same binder?
The interaction score was -1.22.

What about the interaction score (4H452-AA) of the same binder?
Its interaction score is 2.3.

And the interaction score (4H56-AA)?
Its interaction score is -1.58.

What about the interaction score (4H_APH) of the same binder?
Its interaction score is -1.5.

And the interaction score (4H_BCR)?
Its interaction score is -2.17.

And the interaction score (4H_GCN4)?
The interaction score was -1.08.

And the interaction score (GCN2_T)?
The interaction score was -1.15.
